Measurements published in the domain aggregation screens of Martell et al. (2025).

Assay: soluble fraction after stress (log2 fold change); higher = more stays soluble; pooled small domains, quantitative proteomics
Details: stress: 50 degC
Outline: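 Each library was heated to 50°C as a stress step. The libraries, made up of small protein domains, were pooled and analysed at high throughput by quantitative proteomics. The reported value is the base-two logarithm of the fold change in each protein's soluble amount after stress, taken as a measure of aggregation propensity. The higher the value, the more protein stays in solution.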

Which “soluble fraction (log2)” value does the source give for “HMSMTVHGALRLLQLPTIADRPYTLKEIREAYREQAQNHHPDAGGSADAMRRLNEAYQFLKERYRQA” here?
Its value is -0.16.

Which “soluble fraction (log2)” value does the source give for “HMLFGKKYLGKVPNDASGRISLWNDIVKHHQELQNIRAIENFTSDNVTVAQGDTKKAVVVTDYVT” here?
The value was -0.0557.

Which “soluble fraction (log2)” value does the source give for “HMFQNYTDAVVVASKTFFYNMPDESTRKSAYLIQGDRIMVEKSQRNFVYVTFTNEASGRTTTGWLKSDDLE” here?
The value was -2.9.

Which “soluble fraction (log2)” value does the source give for “HMDDDAELLLKKLSAAGGELPFHDRSEPAEIEAAFGLSKSAFKRALGKLLKAGKVVKTQQGIQLK” here?
Its value is 0.0395.

For “HMELGWYVRLRRRELGLSVTALAEKAGMSQSYLSQIETGDRGNPSPESLRSLAEALEVSPRELESLV”, which “soluble fraction (log2)” value is on record?
Its value is -0.331.

For “HMEPMNMYSSIKKVIGVVSGKGGVGKSLVTASLARMMRAKGYHVGIMDADITGPSIPKMYGLHEMA”, which “soluble fraction (log2)” value is on record?
Its value is 0.42.

Which “soluble fraction (log2)” value does the source give for “HMHVLNEEYYNRIKAIQFTMNHDDGNSLNDIEKSDIILLGVSRTSKTPTSIYLANRGLRTSNIPLINEK” here?
The value was -0.326.

Which “soluble fraction (log2)” value does the source give for “HMSTILERLIMLQEQSGMNQKQLQKELGLSNSAFSDWKKGKGRPSVEALVRFSEFFGVSMDWLAFG” here?
The value was -2.09.

Which “soluble fraction (log2)” value does the source give for “HMASLSRRELEVLELLALRLTVKEVAERLVISELTAKRHTSNIYQKLGVNRRRDALAAAQARGLLGAR” here?
Its value is -2.9.

Which “soluble fraction (log2)” value does the source give for “HMGGRTITVGISENMTVKDIAQMLEEKGLIEDARLFVVQELLSAYHKEIKPGIYDLSTDMTAAQMLEIMS” here?
Its value is -0.464.

With “HMDKLFNRQTLGGVELTQKQIEDLNAGKAIFVEGMQRKDGEVFSSYVKLDEATGRPSYTRYNPDSP” as the sequence, how does the “soluble fraction (log2)” value read?
The value was 0.441.

With “HMNADAPWSPFSPGFTGPMNRPVIGLVTKADLANPQRISLVESWLVQAGAQKVFVTSALENTGVDEMFIFL” as the sequence, how does the “soluble fraction (log2)” value read?
The value was -0.124.

Which “soluble fraction (log2)” value does the source give for “HMNYYYKDNQYWYVGFRYDERLVKEIKRFVGAGYNPENKEWYIPFTLPTVAPLQKWLHDNGFVEGMNYYP” here?
Its value is -1.86.

Which “soluble fraction (log2)” value does the source give for “HMIMNLNVLANNVRRLRTAQRLSQSALASKAGLSVPAIKNLENARNEPRVNTVQVIAHALEVRLQDLFAPT” here?
Its value is -1.62.

With “HMEHAETDTRERILVVAERLFRQLGYQKTTVADIAKELRMSPANVYRFFDSKKSIHEGVARTL” as the sequence, how does the “soluble fraction (log2)” value read?
The value was -0.228.

Which “soluble fraction (log2)” value does the source give for “HMLTRSTVNVETGTAAIGLGKLYGVYDMSRKGLKYSFSVDSDAMTKVMEMLLPLGIKSLTVEPPS” here?
Its value is -1.57.

With “HMGGRRHANMSREEEAAFLAPFFEKAAQGGILVVREIRQALDAHLGRTVPLSTVYNLLHRHNWRKL” as the sequence, how does the “soluble fraction (log2)” value read?
Its value is -2.71.

Which “soluble fraction (log2)” value does the source give for “HMVTNELFGTRLRAFRKEKGLTIEQLAERVGLSPNYLGDIERGKKLPSMATFIRLVNELDISADEL” here?
The value was -0.293.

For “HMHQLQLDSRSRLHMTGVIEVESFDEATIVLTTTRGTLIVRGENLHLQLLRLDGGEVLVDGTVDSLSYE”, which “soluble fraction (log2)” value is on record?
Its value is -1.5.

Which “soluble fraction (log2)” value does the source give for “HMLPELQPGQTFSARIQQALPDNTYRALVAGKQLTLQLPEGAKAGDELELVVLDRSARVIIARQVD” here?
The value was -0.146.

Which “soluble fraction (log2)” value does the source give for “HMKDLQHLVGEKGTTVTPLRPSGIALIKGSRYDVVSEGSFIQQGVAVEVIKVEGRRVVVSPLQED” here?
The value was -0.16.

For “HMNLYENLATHVKNAIRQGVYQPGDRLPSVRRLSEQHRVSQNTAVSAYRLLESHGWLEARPQSGFFARHP”, which “soluble fraction (log2)” value is on record?
Its value is -1.11.

Which “soluble fraction (log2)” value does the source give for “HMEDTVNVPIQINGKLRHVIQVQIGTSEEEIQKIALSEEQVKKFTDGHEILKVMVPKGKLVSIVI” here?
Its value is -0.129.

For “HMTELLTPKQRQVFELALREGYYDVPRRTSITEMARLLGVAKSTLSAQMHRMEATVMSTFAEEIRKQ”, which “soluble fraction (log2)” value is on record?
The value was -1.74.

With “HMTAEASELRERIRAAMATLPPAQQRVIELAYFEGLTQREIAALLNEPLGTIKTRMRLGMRKLKDVL” as the sequence, how does the “soluble fraction (log2)” value read?
The value was -0.747.

With “HMNILNYIIENENQEVRVDKFLSDTIEDMSRSSVASIIEDGGLLVNDKLQNKKYKLKIGDKVQFTVPDPV” as the sequence, how does the “soluble fraction (log2)” value read?
Its value is 0.113.

With “HMVDLAPTEEIIKNLPNNSRSLLIPTLQKIQNAYRYLPSPAMELLSEFLNVTRAEIYGVISFYPSLL” as the sequence, how does the “soluble fraction (log2)” value read?
Its value is 0.0871.

For “HMNPGNTESFPVYQKRLGEIIQTLAGKKGQDINSPEVKELVGEYDFLTKQMFQLPDATSMVMEIATAYRN”, which “soluble fraction (log2)” value is on record?
The value was 0.0462.

With “HMQRSVKNNDTVQVHYTGKLTNGQIFDSSIDKQPLEFQLGQGQIIPGFEKGLIDMTVSEKKTITIPEAEAY” as the sequence, how does the “soluble fraction (log2)” value read?
The value was 0.1.

Which “soluble fraction (log2)” value does the source give for “HMSVFGMEIGKTTEAEAGRMYRLNKEQLNPYSGGYQYSVNPKAIDFSGLEQVTLIFDEKKVLVYVQAV” here?
The value was -0.0837.

With “HMDQNVSVPKLAGLQVEEANAILKSKGLHIEIIDSIYQKDAVPGAIIEQVPEENSKVKKGRAIYVSVYAK” as the sequence, how does the “soluble fraction (log2)” value read?
The value was -0.227.

For “HMSSDEEQLATLTRLLQKQEQIIQTLGPRNPMVSLQQYANTITKVIEMAGFKDTSQFINSQIP”, which “soluble fraction (log2)” value is on record?
Its value is -0.0471.

With “HMNIVINVDTPTFEQMKATYQAPGTLPAGASFHAKLKGVTVTGYTKSHKVMFQGALANQEAARWQ” as the sequence, how does the “soluble fraction (log2)” value read?
Its value is -0.92.

For “HMSSTSTKTQNIVHIVKSGETLSAIASKYGVSVDNIKKWNNLSSDKLSIGQKLKINPTTQTSS”, which “soluble fraction (log2)” value is on record?
Its value is 0.245.

For “HMISKAQLFSEEELTELYRATGYQLENDPEIHREQFEALQAVRAKIEYAVPDVQEKLEQEQNLGQQ”, which “soluble fraction (log2)” value is on record?
The value was 0.295.

With “HMGELDPKIIAQINTFLQGITKLIEHPGNKDAKKTALGALHKLTFDQNITANFGKQLGQLDQVIQSSEET” as the sequence, how does the “soluble fraction (log2)” value read?
The value was 0.112.

Which “soluble fraction (log2)” value does the source give for “HMSLPALALRQADSLAFKQVIYHDRVVPFNTLARDFVLKLTGKPSYGGMTPEQVVGGWLLRPEVWQNEPM” here?
Its value is -0.0387.

Which “soluble fraction (log2)” value does the source give for “HMRSVTLQTDREGDILYVDGKQIGVSPQRLELSYGVHTIRAERGEQHTEKELEVTETGGETVVTLGFG” here?
Its value is 0.129.
